Laboratory results as given in publication PMC6169973, “RAIDD mutations underlie the pathogenesis of thin lissencephaly (TLIS)” (PLoS ONE, 2018).

B1: RAIDD DD (94-199), wild type (domain or fragment)
chain: not shown
notes: RAIDD (RIP-associated Ich-1/Ced-3 homologous protein with a death domain), death domain, residues 94-199; also called RD-DD; RAIDD death domain; source: E. coli BL21 (DE3) RILP, purified (Ni-NTA, size exclusion S-200)
B2: PIDD DD (777-883) (domain or fragment, UniProt Q9HB75 777-883, looked up)
chain: LNLGDAETGFLTQSNLLSVAGRLGLDWPAVALHLGVSYREVQRIRHEFRDDLDEQIRHMLFSWAERQAGQPGAVGLLVQALEQSDRQDVAEEVRAVLELGRRKYQDS
notes: PIDD (p53-induced protein with a death domain), death domain, residues 777-883; also called PD-DD; PIDD death domain; source: E. coli BL21 (DE3) RILP, purified (Ni-NTA, size exclusion S-200)

Assays:
[1] = molecular target: B2; experiment: SEC; RAIDD (full length, DD or mutant) mixed with a molar excess of PIDD DD, 30 min at room temperature; Superdex 200 HR 10/30 in 20 mM Tris-HCl pH 8.0, 150 mM NaCl; fractions on SDS-PAGE, Coomassie; conditions: both partners purified
[2] = molecular target: T1, full-length RAIDD (1-199), wild type (UniProt P78560 1-199); experiment: as above; conditions: both partners purified
T1 construct: RAIDD, full length, residues 1-199 (CARD and DD); also called RD; wild-type full-length RAIDD; source: E. coli BL21 (DE3) RILP, purified (Ni-NTA, size exclusion S-200)
T1 sequence (P78560 whole entry, the tested form may be a part): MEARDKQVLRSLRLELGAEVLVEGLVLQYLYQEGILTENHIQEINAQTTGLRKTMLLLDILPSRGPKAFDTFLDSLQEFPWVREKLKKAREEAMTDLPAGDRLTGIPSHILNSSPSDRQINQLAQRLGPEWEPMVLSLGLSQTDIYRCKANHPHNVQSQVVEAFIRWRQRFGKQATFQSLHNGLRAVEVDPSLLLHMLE

Row | Binder | binding result [1] | binding result [2]
1 | B1 | binds | 
2 | B2 |  | binds
